B1: FLAG-tagged KIR3DL1*001 [human] / HLA-B*57:01-LF9 tetramer [human | not stated] (parent complex)
chain 1: HMGGQDKPFLSAWPSAVVPRGGHVTLRCHYRHRFNNFMLYKEDRIHIPIFHGRIFQESFNMSPVTTAHAGNYTCRGSHPHSPTGWSAPSNPVVIMVTGNHRKPSLLAHPGPLVKSGERVILQCWSDIMFEHFFLHKEGISKDPSRLVGQIHDGVSKANFSIGPMMLALAGTYRCYGSVTHTPYQLSAPSDPLDIVVTGPYEKPSLSAQPGPKVQAGESVTLSCSSRSSYDMYHLSREGGAHERRLPAVRKVNRTFQADFPLGPATHGGTYRCFGSFRHSPYEWSDPSDPLLVSVTGNPSSSWPSPTEPSSKSGNPRHLHILIGTSVVIILFILLLFFLLHLWCSNKKNAAVMDQEPAGNRTANSEDSDEQDPEEVTYAQLDHCVFTQRKITRPSQRPKTPPTDTILYTELPNAKPRSKVVSCP
chain 2: not shown
chain 3: not shown
chain 4: LSSPVTKSF

Data on 10 variants can be found in PMC4442525 (2015).

One experiment covers variants of B1. Put plainly: pHLA tetramer staining of transfected HEK293T cells; read off a plot.
As for chain 1 L166R, the response was around 8. On the same count and under the same terms, the result for chain 1 G138W reads around 83. Consider chain 1 P199L, for which the response is around 71. Same read-out and setting: to chain 1 P163S belongs around 81.

Another experiment covers variants of B1. Described as above. This is another data set of the same source.
For chain 4 S8A, the response was around 57. For chain 4 S8L, the response was around 58.

On to chain 4 S8H, for which the response was around 99. Same read-out and setting: the result for chain 4 S8R reads around 72; that for chain 4 S8F, around 110.

Another experiment covers variants of B1. The experiment is described as above. The source holds these as a separate data set.
Turning to chain 4 S8E, the response is around 6.
